Laboratory results reported in paper PMC6695498.

Tests used:
[1] = molecular target: SUMO-binding domain of Arkadia (residues 285–416) with mutations in the SOB motif (SOB*) (murine) (UniProt Q99ML9); experiment: ITC
[2] = molecular target: Arkadia (RING finger protein 111, RNF111), wild type, expressed in S. cerevisiae (human) (UniProt Q6ZNA4)
[3] = molecular target: SUMO1-GFP-COMP-HA; experiment: native gel or EMSA; native PAGE of the GFP-COMP substrates expressed in S. cerevisiae
[4] = molecular target: FLAG-SUMO2-GFP-COMP-HA; experiment: as above

Arkadia (RING finger protein 111, RNF111), wild type, expressed in S. cerevisiae (human), sequence (Q6ZNA4 whole entry): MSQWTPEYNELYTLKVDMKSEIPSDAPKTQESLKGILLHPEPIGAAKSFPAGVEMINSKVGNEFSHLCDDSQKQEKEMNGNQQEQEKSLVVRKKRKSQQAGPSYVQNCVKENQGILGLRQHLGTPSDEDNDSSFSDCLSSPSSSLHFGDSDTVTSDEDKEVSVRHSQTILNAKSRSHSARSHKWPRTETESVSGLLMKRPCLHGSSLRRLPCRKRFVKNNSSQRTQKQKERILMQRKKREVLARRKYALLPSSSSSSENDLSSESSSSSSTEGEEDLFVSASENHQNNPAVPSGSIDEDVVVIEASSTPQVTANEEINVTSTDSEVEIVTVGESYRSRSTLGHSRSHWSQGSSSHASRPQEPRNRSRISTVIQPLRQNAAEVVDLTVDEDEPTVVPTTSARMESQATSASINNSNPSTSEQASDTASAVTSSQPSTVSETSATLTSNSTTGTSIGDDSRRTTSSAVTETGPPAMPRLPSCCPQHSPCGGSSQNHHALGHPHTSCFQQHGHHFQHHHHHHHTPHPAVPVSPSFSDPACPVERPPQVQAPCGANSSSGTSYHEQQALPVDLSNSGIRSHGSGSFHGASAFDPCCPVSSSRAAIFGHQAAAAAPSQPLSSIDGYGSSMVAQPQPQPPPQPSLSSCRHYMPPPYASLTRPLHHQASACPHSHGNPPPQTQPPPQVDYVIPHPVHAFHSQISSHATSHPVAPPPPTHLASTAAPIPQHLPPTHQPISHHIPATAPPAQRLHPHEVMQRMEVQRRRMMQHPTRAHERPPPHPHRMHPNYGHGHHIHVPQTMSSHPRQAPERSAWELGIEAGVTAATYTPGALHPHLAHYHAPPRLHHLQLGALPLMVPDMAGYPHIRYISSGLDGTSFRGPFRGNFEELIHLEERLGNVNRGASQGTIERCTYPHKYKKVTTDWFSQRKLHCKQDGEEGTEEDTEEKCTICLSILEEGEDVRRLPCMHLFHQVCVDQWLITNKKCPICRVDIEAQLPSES
SUMO-binding domain of Arkadia (residues 285–416) with mutations in the SOB motif (SOB*) (murine), sequence (Q99ML9 285-416, change not shown): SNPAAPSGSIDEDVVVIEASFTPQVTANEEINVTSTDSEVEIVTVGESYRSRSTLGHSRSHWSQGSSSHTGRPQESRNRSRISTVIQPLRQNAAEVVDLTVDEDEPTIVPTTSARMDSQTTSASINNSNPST

Row | Substance | Kd [1] | steady-state level of the reporter in S. cerevisiae co-expressing Arkadia, against the vector control (quantitative anti-HA Western blot) [2] | other results
1 | linear SUMO1-capped SUMO2 trimer (SUMO1-ΔN15 followed by two SUMO2-ΔN11) (from UniProt P63165 16-101; P61956 12-95; P61956 12-95) | 12.4 µM |  | 
2 | FLAG-4xSUMO2-GFP-HA (from UniProt P61956 12-95; P61956 12-95; P61956 12-95) |  | 60% | 
3 | SUMO1-GFP-COMP-HA |  |  | stoichiometry N [3]: 5
4 | FLAG-SUMO2-GFP-COMP-HA |  |  | stoichiometry N [4]: 5
5 | linear SUMO2 trimer (tri-SUMO2-ΔN11) (from UniProt P61956 12-95; P61956 12-95; P61956 12-95) | 11.1 µM |  | 
6 | FLAG-SUMO1-3xSUMO2-GFP-HA |  | 25% | 
